From PMC10681803, “Dynamic ParB–DNA interactions initiate and maintain a partition condensate for bacterial chromosome segregation” (Nucleic Acids Research, 2023)
Residue numbers refer to the chain shown, from its start. Names and notes keep the numbering of the source.

Assays:
[1] = target: the molecule itself; assay: single-molecule fluorescence DNA-stretching assay (HiLo/TIRF microscopy); 42 kb DNA with a single parS tethered at both ends, SxG stain; 0.3 nM ParB^TMR in imaging buffer (40 mM Tris-HCl, 65 mM KCl, 2.5 mM MgCl2, 1 mM CTP); both ParB dimers loaded on the DNA
[2] = target: the molecule itself; assay: cross-linking; BMOE cysteine cross-linking of ParB^T22C [2 uM] with ~200 bp DNA with parS [2 uM] and 1 mM CTP, room temperature, quenched with DTT, 12% SDS-PAGE
[3] = target: the molecule itself; assay: cross-linking; BMOE (1 mM) cysteine cross-linking of ParB^S278C at 10 uM in storage buffer (50 mM Tris-HCl pH 7.5, 300 mM NaCl) without DNA, quenched with DTT, 12% SDS-PAGE

B1: TMR-labelled Bacillus subtilis ParB L5C (natural protein, UniProt P26497 1-282, looked up)
chain: MAKGCGKGINALFNQVDLSEETVEEIKIADLRPNPYQPRKHFDDEALAELKESVLQHGILQPLIVRKSLKGYDIVAGERRFRAAKLAGLDTVPAIVRELSEALMREIALLENLQREDLSPLEEAQAYDSLLKHLDLTQEQLAKRLGKSRPHIANHLRLLTLPENIQQLIAEGTLSMGHGRTLLGLKNKNKLEPLVQKVIAEQLNVRQLEQLIQQLNQNVPRETKKKEPVKDAVLKERESYLQNYFGTTVNIKRQKKKGKIEIEFFSNEDLDRILELLSERES
modifications: TMR-maleimide label on the ParB^L5C variant (labelling efficiency 70% of monomers)
notes: ParB (Spo0J) of Bacillus subtilis with L5C, expressed untagged; Untagged; also called ParB^TMR; source: E. coli BL21-Gold (DE3), purified (ammonium sulfate, Heparin, HiTrap SP, Superdex 200), labelled with TMR-maleimide
[1]
  binding result: binds

B2: Bacillus subtilis ParB T22C (natural protein, UniProt P26497 1-282, looked up)
chain: B1 chain with C5L, T22C
notes: ParB (Spo0J) of Bacillus subtilis with T22C, expressed untagged; Untagged; C22 of the two chains is cross-linked by BMOE in the N-terminally closed clamp; source: E. coli BL21-Gold (DE3), purified
[2]
  binding result: binds

B3: Bacillus subtilis ParB S278C (natural protein, UniProt P26497 1-282, looked up)
chain: B1 chain with C5L, S278C
notes: ParB (Spo0J) of Bacillus subtilis with S278C, expressed untagged; Untagged; C278 of the two chains is cross-linked by BMOE at the C-terminus; source: E. coli BL21-Gold (DE3), purified
[3]
  binding result: binds
